± gives the uncertainty stated by the source.
B1: Zinc finger MYM-type protein 6, residues 427 to 504; numbered along this chain, O95789 (parent)
chain: KLKCQHCNHLFATKPELLFYKGKMFLFCGKNCSDEYKKKNKVVAMCDYCKLQKIIKETVRFSGVDKPFCSEVCKFLSA

Variants of: B1
Test: abundance fitness (aPCA) (normalised: wild type 0, dead -1); higher = more abundant; growth selection in yeast, the domain comes from the species named
Details: Homo sapiens

Point of comparison: K66C, abundance fitness -0.635 ± 0.33. Against it:
- D65C — within error, -0.284 ± 0.4
- D65V — within error, -0.232 ± 0.1
- D65G — within error, -0.488 ± 0.1
- D65A — within error, -0.226 ± 0.12
- D65M — higher, 0.006 ± 0.13
- D65N — within error, -0.141 ± 0.34
- D65F — within error, -0.598 ± 0.2
- D65P — within error, -0.339 ± 0.21
- D65I — within error, -0.666 ± 0.3
- D65R — within error, -0.908 ± 0.23
- D65T — within error, -0.208 ± 0.36
- D65S — higher, -0.188 ± 0.1
- D65L — higher, -0.105 ± 0.099
- D65E — higher, 0.142 ± 0.11
- S62L — within error, -0.19 ± 0.2
- S62Y — higher, 0.176 ± 0.15
- S62Q — higher, 0.316 ± 0.08
- S62A — higher, 0.054 ± 0.079
- S62G — higher, 0.327 ± 0.07
- S62M — higher, 0.432 ± 0.17
- S62V — within error, -0.536 ± 0.13
- S62D — higher, 0.914 ± 0.083
- S62R — higher, -0.01 ± 0.096
- S62H — higher, 0.585 ± 0.089
- S62P — within error, -0.325 ± 0.12
- S62T — within error, -0.141 ± 0.28
- S62C — higher, -0.072 ± 0.14
- S62W — within error, -0.696 ± 0.24
- Q52C — within error, -0.576 ± 0.23
- Q52L — higher, -0.128 ± 0.093
- Q52R — higher, 0.061 ± 0.071
- Q52E — higher, 0.446 ± 0.075
- Q52P — higher, 0.108 ± 0.22
- Q52T — higher, 0.181 ± 0.09
- Q52A — within error, -0.485 ± 0.11
- Q52V — higher, 0.173 ± 0.092
- Q52M — higher, 0.234 ± 0.23
- Q52K — higher, 0.51 ± 0.11
- Q52W — within error, -0.483 ± 0.2
- K66V — higher, 0.542 ± 0.081
- K66Y — higher, 0.215 ± 0.33
- K66L — within error, -0.889 ± 0.4
- K66W — within error, -0.845 ± 0.28
- K66Q — within error, -0.348 ± 0.23
- K66T — within error, -0.199 ± 0.33
- K66H — higher, -0.091 ± 0.19
- K66S — within error, -0.669 ± 0.31
- K66E — higher, 0.161 ± 0.16
- K66A — within error, -0.292 ± 0.23
- K66M — higher, 0.325 ± 0.15
- K66G — higher, 0.144 ± 0.11
- R60Q — higher, 0.014 ± 0.16
- R60D — higher, 0.342 ± 0.21
- R60V — higher, -0.093 ± 0.12
- R60N — higher, 0.366 ± 0.19
- R60Y — within error, -0.423 ± 0.38
- R60K — higher, 0.041 ± 0.14
- R60G — higher, -0.215 ± 0.082
- R60H — higher, 0.001 ± 0.28
- R60C — higher, -0.059 ± 0.1
- R60L — within error, -0.309 ± 0.13
- R60S — higher, 0.39 ± 0.13
- R60E — higher, 0.008 ± 0.24
- R60M — higher, 0.46 ± 0.14
- R60W — within error, -0.468 ± 0.17
- R60P — higher, 0.116 ± 0.12
- T58V — higher, 0.031 ± 0.1
- T58K — within error, 0.055 ± 0.44
- T58R — higher, 0.019 ± 0.071
- T58D — higher, 0.779 ± 0.11
- T58A — within error, -0.585 ± 0.11
- T58L — within error, -0.546 ± 0.45
- T58Y — higher, 0.177 ± 0.41
- T58H — higher, 0.511 ± 0.41
- T58P — within error, -0.328 ± 0.21
- T58W — within error, -0.669 ± 0.28
- T58E — within error, -0.277 ± 0.14
- T58G — higher, -0.125 ± 0.084
- E71M — higher, 0.094 ± 0.14
- E71P — higher, -0.054 ± 0.16
- E71H — within error, -0.09 ± 0.39
- E71A — higher, -0.188 ± 0.092
- E71K — higher, 0.16 ± 0.17
- E71L — within error, -0.962 ± 0.19
- E71G — within error, -0.292 ± 0.092
- E71R — higher, -0.111 ± 0.081
- E71Q — within error, -0.194 ± 0.23
- E71N — higher, 0.491 ± 0.44
- C49D — within error, -0.718 ± 0.14
- C49W — within error, -1.05 ± 0.22
- C49E — within error, -0.64 ± 0.18
- C49Q — higher, 0.123 ± 0.19
- C49T — within error, -0.54 ± 0.32
- C49V — within error, -1.07 ± 0.17
- C49S — within error, -0.489 ± 0.13
- C49M — within error, -0.677 ± 0.23
- C49K — within error, -0.433 ± 0.32
- C49R — within error, -0.242 ± 0.089
- C49A — within error, -0.604 ± 0.11
- C49G — within error, -0.54 ± 0.083
- V59A — higher, -0.078 ± 0.095
- V59C — within error, -0.452 ± 0.38
- V59P — within error, -0.246 ± 0.15
- V59W — within error, -0.344 ± 0.17
- V59T — higher, 0.204 ± 0.18
- V59R — within error, -0.42 ± 0.084
- V59L — higher, 0.051 ± 0.13
- V59E — higher, -0.053 ± 0.13
- V59S — within error, -0.314 ± 0.12
- V59Y — within error, -0.536 ± 0.42
- V59K — higher, -0.051 ± 0.11
- V59Q — within error, -0.416 ± 0.12
- V59D — within error, -0.246 ± 0.21
- V59M — higher, 0.461 ± 0.24
- F68L — within error, -0.288 ± 0.13
- F68E — within error, -0.278 ± 0.1
- F68A — higher, -0.036 ± 0.12
- F68C — higher, 0.204 ± 0.15
- F68P — higher, -0.113 ± 0.14
- F68M — higher, 0.263 ± 0.14
- F68D — within error, -0.35 ± 0.17
- F68T — within error, -0.555 ± 0.35
- F68Q — within error, -0.341 ± 0.17
- F68W — within error, -0.651 ± 0.12
- F68S — within error, -0.842 ± 0.17
- F68R — within error, -0.516 ± 0.11
- F68Y — higher, 0.439 ± 0.39
- F68K — within error, -0.476 ± 0.21
- E57D — higher, 0.002 ± 0.3
- E57H — higher, 0.272 ± 0.27
- E57C — higher, 0.163 ± 0.27
- E57T — higher, 0.026 ± 0.13
- E57A — higher, -0.129 ± 0.1
- E57V — higher, -0.059 ± 0.1
- E57R — higher, -0.181 ± 0.087
- E57Q — within error, -0.289 ± 0.38
- E57S — within error, -0.388 ± 0.13
- E57G — higher, -0.163 ± 0.069
- E57M — higher, 0.605 ± 0.12
- E57L — within error, -0.711 ± 0.25
- I54W — higher, -0.079 ± 0.11
- I54V — higher, 0.131 ± 0.076
- I54Q — higher, 0.52 ± 0.08
- I54S — higher, 0.174 ± 0.18
- I54A — higher, 0.557 ± 0.068
- I54N — higher, 0.189 ± 0.39
- I54P — higher, 0.442 ± 0.1
- I54T — higher, 0.104 ± 0.17
- I54L — higher, 0.128 ± 0.078
- I54K — higher, 0.356 ± 0.17
- I54R — higher, 0.157 ± 0.068
- I54G — higher, 0.238 ± 0.06
- I54C — higher, 0.675 ± 0.26
- I54M — higher, 0.623 ± 0.083
- C69E — within error, -0.286 ± 0.15
- C69V — within error, -1.03 ± 0.28
- C69S — within error, -0.539 ± 0.15
- C69P — within error, -0.391 ± 0.18
- C69G — within error, -0.731 ± 0.097
- C69L — within error, -0.954 ± 0.24
- C69W — within error, -0.71 ± 0.16
- C69R — within error, -0.602 ± 0.097
- C69A — within error, -1.23 ± 0.28
- C69M — within error, -0.443 ± 0.16
- C69T — within error, -0.902 ± 0.24
- C69K — within error, -0.637 ± 0.18

Source: the Human Domainome abundance scans (Beltran et al. 2025)
